According to US20160122432A1 (INSERM INSTITUT NATIONAL DE LA SANTE ET DE LA RECHERCHE …, published 2016):

Molecular target: T1, human HER2 receptor (human, UniProt P04626 23-1255)
T1 construct: whole, on cells; Endogenous HER2 on human cancer cell lines; also called Human Epidermal Growth Factor Receptor 2; Neu
Test: flow cytometry, biotinylated antibody titrated on SK-BR-3 cells, PE-streptavidin, apparent affinity
From the text: After a washing step, bound antibodies were detected using PE-labeled streptavidin and analyzed by FACS. The inverse of the fluorescence was plotted as a function of the inverse of antibody concentration.

Kd [nM]	Binder
51.6	HER2.C7b sdAb (VHH, not shown: small tags and cut ends, biotinylated in vitro (Ez-link micro NHS-PEO4-biotinylation kit) for the affinity determination; sites not stated, also called sdAb HER2.C7b; anti HER2 sdAb HER2.C7b) VHH: QVQLVQSGGGLVQAGGSLRLSCAASGRTFSSYAMAWFRQAPGKEREFVAAISWSGANIYVADSVKGRFTISRDNAKDTVYLQMNSLKPEDTAVYYCAVKLGFAPVEERQYDYWGQGTQVTVSS
2.9	HER2.C7b-Fc (Fc fusion, biotinylated in vitro for the affinity determination; sites not stated, Bivalent for HER2: two HER2.C7b sdAb fused to the constant part of human IgG1; also called Sdab HER2.C7b-Fc; aHER2.C7b-Fc; not shown: hinge, CH1 and CH2 domains of a human IgG1 (so in the source)) QVQLVQSGGGLVQAGGSLRLSCAASGRTFSSYAMAWFRQAPGKEREFVAAISWSGANIYVADSVKGRFTISRDNAKDTVYLQMNSLKPEDTAVYYCAVKLGFAPVEERQYDYWGQGTQVTVSS
